From US20180057553A1 (UNIVERSITY OF TOKYO, published 2018) come the findings set out here.

Assay [1] concerns the target T1, recombinant human TNF-alpha (Life Technologies) (human, UniProt P01375 77-233). As to the kind of experiment: Biacore SPR: conjugate fixed to the sensor chip via an amino group, recombinant human TNF-alpha as analyte at 0.78-100 nM. From the text:
(§1) Recombinant human TNF-alpha (Life Technologies) was used as TNF-alpha.

The target of assay [2] is T1, recombinant human TNF-alpha (Life …). The assay is described as follows: depletion assay: serially diluted conjugate mixed with human TNF-alpha (100% = 6.2 ng/mL), complex adsorbed on diol Sepharose beads, TNF-alpha remaining in the supernatant measured by ELISA; 1st experiment. How it is done: (§2) The complex of TNF-alpha and the conjugate were then adsorbed using 3 microliters of diol Sepharose beads. Subsequently, TNF-alpha in the supernatant was measured by ELISA, and the percentage of the remaining TNF-alpha was calculated. Experiments were done twice, independently.
A general note: ELISA stands for enzyme-linked immunosorbent assay.

For assay [3] the target is unchanged. The assay is described as follows: SPR (Biacore), conjugate amine-coupled to chip, TNF-alpha as analyte.
Excerpt: as §1
Background: SPR reads the build-up and loss of mass on a sensor chip optically.

The target is the same in assay [4]. As to the kind of experiment: depletion assay: serially diluted conjugate mixed with human TNF-alpha (100% = 6.2 ng/mL), complex adsorbed on diol Sepharose beads, TNF-alpha remaining in the supernatant measured by ELISA; 2nd experiment. On the procedure:
as §2

A word on the koff: it is a measure of how fast the partners let go of each other. A word on the EC50 (read off the curve): it is the midpoint of the concentration-response curve. By Kd is commonly meant the concentration at which binding is half-saturated. The term kon denotes the second-order rate constant of association.

T1 sequence (P01375 77-233 limits assumed): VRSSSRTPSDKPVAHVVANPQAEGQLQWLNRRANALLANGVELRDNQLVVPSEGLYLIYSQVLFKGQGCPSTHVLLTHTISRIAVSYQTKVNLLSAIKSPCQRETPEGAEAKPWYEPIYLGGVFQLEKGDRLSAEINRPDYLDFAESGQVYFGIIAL

B1: conjugate of the extracellular region of human TNF receptor 2 (TNFR2) and mutant recombinant human intelectin-1 (S165A) (receptor)
chain: LPAQVAFTPYAPEPGSTCRLREYYDQTAQMCCSKCSPGQHAKVFCTKTSDTVCDSCEDSTYTQLWNWVPECLSCGSRCSSDQVETQACTREQNRICTCRPGWYCALSKQEGCRLCAPLRKCRPGFGVARPGTETSDVVCKPCAPGTFSNTTSSTDICRPHQICNVVAIPGNASMDAVCTSTSPTRSMAPGAVHLPQPVSTRSQHTQPTPEPSTAPSTSFLLPMGPSPPAEGSTGDGTDEANTYFKEWTCSSSPSLPRSCKEIKDECPSAFDGLYFLRTENGVIYQTFCDMTSGGGGWTLVASVHENDMRGKCTVGDRWSSQQGSKADYPEGDGNWANYNTFGSAEAATSDDYKNPGYYDIQAKDLGIWHVPNKSPMQHWRNSALLRYRTDTGFLQTLGHNLFGIYQKYPVKYGEGKCWTDNGPVIPVVYDFGDAQKTASYYSPYGQREFTAGFVQFRVFNNERAANALCAGMRVTGCNTEHHCIGGGGYFPEASPQQCGDFSGFDWSGYGTHVGYSSSREITEAAVLLFYR
notes: also called conjugate of TNFR2 and intelectin
On to B1, for which, in assay [1], the koff is 0.000536 s⁻¹. Further, the “EC50 (read off the curve)” value in assay [2] is approximately 0.3 µg/mL. Moreover, in assay [3], the Kd turned out to be 0.468 nM and the kon stood at 1.14e+06 M⁻¹ s⁻¹. Besides, in assay [4], the “EC50 (read off the curve)” value is approximately 0.3 µg/mL.
